Patent US20030040042A1, “Recombinant fibroblast growth factors” (published 2003)
Changes are numbered by the printed parent chain. Blank lines part the entries; values can stand above or below the molecule they belong to.

Tests used:
[1] = target: FGF receptor on Balb/c 3T3 cells; assay: competition with [125I]-bFGF on Balb/c 3T3 cells, no heparin
[2] = target: FGF receptor on Balb/c 3T3 cells; assay: competition with [125I]-bFGF on Balb/c 3T3 cells, 1 ug/ml heparin
[3] = target: FGF receptor on Balb/c 3T3 cells
[4] = target: FGF receptor on bovine adrenal cortex capillary endothelial (ACE) cells (bovine) (UniProt P12820)
[5] = target: T1, FGF receptor on bovine adrenal cortex capillary endothelial (ACE) cells (bovine, UniProt P12820); assay: cell-based or functional assay
T1 sequence: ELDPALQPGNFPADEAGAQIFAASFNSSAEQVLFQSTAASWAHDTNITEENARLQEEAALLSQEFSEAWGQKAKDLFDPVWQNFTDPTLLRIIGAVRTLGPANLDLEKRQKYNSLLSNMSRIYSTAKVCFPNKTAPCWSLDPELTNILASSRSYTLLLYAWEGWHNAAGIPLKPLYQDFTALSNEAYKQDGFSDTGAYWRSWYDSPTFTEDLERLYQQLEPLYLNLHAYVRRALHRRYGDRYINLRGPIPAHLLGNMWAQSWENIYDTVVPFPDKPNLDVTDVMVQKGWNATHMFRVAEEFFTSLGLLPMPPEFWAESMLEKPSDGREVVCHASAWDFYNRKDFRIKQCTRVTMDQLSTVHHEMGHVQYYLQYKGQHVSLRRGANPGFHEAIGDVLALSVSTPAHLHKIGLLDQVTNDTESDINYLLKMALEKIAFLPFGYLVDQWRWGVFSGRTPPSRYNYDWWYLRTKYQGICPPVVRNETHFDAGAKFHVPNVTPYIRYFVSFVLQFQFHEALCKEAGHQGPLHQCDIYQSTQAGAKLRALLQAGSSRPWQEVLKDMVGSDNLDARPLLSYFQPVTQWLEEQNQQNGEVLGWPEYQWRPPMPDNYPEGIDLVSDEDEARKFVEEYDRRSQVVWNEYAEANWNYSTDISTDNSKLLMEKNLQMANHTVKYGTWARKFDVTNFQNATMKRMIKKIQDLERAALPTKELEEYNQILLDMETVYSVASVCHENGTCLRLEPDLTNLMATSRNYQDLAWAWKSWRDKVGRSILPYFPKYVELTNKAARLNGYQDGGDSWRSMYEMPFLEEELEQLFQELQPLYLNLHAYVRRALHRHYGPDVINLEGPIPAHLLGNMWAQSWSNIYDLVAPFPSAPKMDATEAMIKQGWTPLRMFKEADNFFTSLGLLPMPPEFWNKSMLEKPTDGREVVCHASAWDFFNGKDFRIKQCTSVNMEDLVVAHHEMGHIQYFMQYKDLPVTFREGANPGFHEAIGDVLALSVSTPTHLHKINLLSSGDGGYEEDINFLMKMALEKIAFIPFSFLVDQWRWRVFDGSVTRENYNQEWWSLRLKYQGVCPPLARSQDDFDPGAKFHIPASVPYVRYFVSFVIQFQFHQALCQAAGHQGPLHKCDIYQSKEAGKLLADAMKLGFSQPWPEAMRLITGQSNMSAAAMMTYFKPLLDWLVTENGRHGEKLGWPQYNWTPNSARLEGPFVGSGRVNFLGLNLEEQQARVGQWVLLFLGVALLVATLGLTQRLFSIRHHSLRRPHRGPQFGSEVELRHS

- 3T3 Mito., no heparin (ED50 wild type / ED50 analog x 100%) (% of wild type) [3]: 210
- FGF-Rc Comp. (ED50 analog / ED50 wild type FGF) [1]: 0.3
- FGF-Rc Comp. (ED50 analog / ED50 wild type FGF) [2]: 0.25
Molecule: bFGF-K128S (from UniProt P09038-2) (ligand)

- 3T3 Mito., no heparin (ED50 wild type / ED50 analog x 100%) (% of wild type) [3]: 160
- FGF-Rc Comp. (ED50 analog / ED50 wild type FGF) [1]: 1
- FGF-Rc Comp. (ED50 analog / ED50 wild type FGF) [2]: 1
Molecule: bFGF-N113S (from UniProt P09038-2) (ligand)

- 3T3 Mito., 1 ug/ml heparin (ED50 wild type / ED50 analog x 100%) (% of wild type) [3]: 100
- 3T3 Mito., no heparin (ED50 wild type / ED50 analog x 100%) (% of wild type) [3]: 100
- FGF-Rc Comp. (ED50 analog / ED50 wild type FGF) [1]: 1
- FGF-Rc Comp. (ED50 analog / ED50 wild type FGF) [2]: 0.8
Molecule: bFGF-R31S (from UniProt P09038-2) (ligand)

- 3T3 Mito., 1 ug/ml heparin (ED50 wild type / ED50 analog x 100%) (% of wild type) [3]: 300
- 3T3 Mito., no heparin (ED50 wild type / ED50 analog x 100%) (% of wild type) [3]: 50
- FGF-Rc Comp. (ED50 analog / ED50 wild type FGF) [1]: 0.2
Molecule: bFGF-R116T (from UniProt P09038-2) (ligand)

- 3T3 Mito., 1 ug/ml heparin (ED50 wild type / ED50 analog x 100%) (% of wild type) [3]: 190
- 3T3 Mito., no heparin (ED50 wild type / ED50 analog x 100%) (% of wild type) [3]: 87
- FGF-Rc Comp. (ED50 analog / ED50 wild type FGF) [1]: 1.3
- FGF-Rc Comp. (ED50 analog / ED50 wild type FGF) [2]: 0.5
Molecule: bFGF-R129T (from UniProt P09038-2) (ligand)

- 3T3 Mito., 1 ug/ml heparin (ED50 wild type / ED50 analog x 100%) (% of wild type) [3]: 25
- 3T3 Mito., no heparin (ED50 wild type / ED50 analog x 100%) (% of wild type) [3]: 5
- FGF-Rc Comp. (ED50 analog / ED50 wild type FGF) [1]: 0.5
Molecule: human acidic FGF (from UniProt P05230) (ligand)

Further lines, the molecule ahead of its results:

Molecule: bFGF-K55M (from UniProt P09038-2) (ligand)
- FGF-Rc Comp. (ED50 analog / ED50 wild type FGF) [1]: 0.4
- FGF-Rc Comp. (ED50 analog / ED50 wild type FGF) [2]: 0.4

Molecule: bFGF-K119S (from UniProt P09038-2) (ligand)
- 3T3 Mito., 1 ug/ml heparin (ED50 wild type / ED50 analog x 100%) (% of wild type) [3]: 250
- 3T3 Mito., no heparin (ED50 wild type / ED50 analog x 100%) (% of wild type) [3]: 48
- FGF-Rc Comp. (ED50 analog / ED50 wild type FGF) [1]: 0.35
- FGF-Rc Comp. (ED50 analog / ED50 wild type FGF) [2]: 0.25

Molecule: bFGF-K128E (from UniProt P09038-2) (ligand)
- 3T3 Mito., 1 ug/ml heparin (ED50 wild type / ED50 analog x 100%) (% of wild type) [3]: 140
- 3T3 Mito., no heparin (ED50 wild type / ED50 analog x 100%) (% of wild type) [3]: 200

Molecule: bFGF-R48A (from UniProt P09038) (ligand)
- ACE Mito., 1 ug/ml heparin (ED50 wild type / ED50 analog x 100%) (% of wild type) [4]: 84.2
- ACE Mito., no heparin (ED50 wild type / ED50 analog x 100%) (% of wild type) [4]: 8.9
- FGF-Rc Comp. (ED50 analog / ED50 wild type FGF) [1]: 0.32
- FGF-Rc Comp. (ED50 analog / ED50 wild type FGF) [2]: 0.3

Molecule: bFGF-R48L (from UniProt P09038) (ligand)
- ACE Mito., no heparin (ED50 wild type / ED50 analog x 100%) (% of wild type) [4]: 1.7
- FGF-Rc Comp. (ED50 analog / ED50 wild type FGF) [1]: 0.16
- FGF-Rc Comp. (ED50 analog / ED50 wild type FGF) [2]: 2

Molecule: bFGF-R53L (from UniProt P09038-2) (ligand)
- FGF-Rc Comp. (ED50 analog / ED50 wild type FGF) [1]: 0.22
- FGF-Rc Comp. (ED50 analog / ED50 wild type FGF) [2]: 0.25

Molecule: bFGF-R90T (from UniProt P09038-2) (ligand)
- 3T3 Mito., 1 ug/ml heparin (ED50 wild type / ED50 analog x 100%) (% of wild type) [3]: 216
- 3T3 Mito., no heparin (ED50 wild type / ED50 analog x 100%) (% of wild type) [3]: 77
- FGF-Rc Comp. (ED50 analog / ED50 wild type FGF) [1]: 0.6
- FGF-Rc Comp. (ED50 analog / ED50 wild type FGF) [2]: 0.5

Molecule: bFGF-R106L (from UniProt P09038-2) (ligand)
- 3T3 Mito., 1 ug/ml heparin (ED50 wild type / ED50 analog x 100%) (% of wild type) [3]: 200
- 3T3 Mito., no heparin (ED50 wild type / ED50 analog x 100%) (% of wild type) [3]: 20
- FGF-Rc Comp. (ED50 analog / ED50 wild type FGF) [1]: 0.3
- FGF-Rc Comp. (ED50 analog / ED50 wild type FGF) [2]: 0.13

Molecule: bFGF-R118L (from UniProt P09038) (ligand)
- ACE Mito., no heparin (ED50 wild type / ED50 analog x 100%) (% of wild type) [4]: 1.8
- FGF-Rc Comp. (ED50 analog / ED50 wild type FGF) [1]: 0.5
- FGF-Rc Comp. (ED50 analog / ED50 wild type FGF) [2]: 0.4

Molecule: bFGF-V52K (from UniProt P09038-2) (ligand)
- FGF-Rc Comp. (ED50 analog / ED50 wild type FGF) [1]: 0.5
- FGF-Rc Comp. (ED50 analog / ED50 wild type FGF) [2]: 0.4

Molecule: bFGF-Y112A (from UniProt P09038-2) (ligand)
- 3T3 Mito., 1 ug/ml heparin (ED50 wild type / ED50 analog x 100%) (% of wild type) [3]: 0.2
- 3T3 Mito., no heparin (ED50 wild type / ED50 analog x 100%) (% of wild type) [3]: 0.2
- FGF-Rc Comp. (ED50 analog / ED50 wild type FGF) [1]: 100
- FGF-Rc Comp. (ED50 analog / ED50 wild type FGF) [2]: 100

B1: bFGF-C34/78/96/101S (ligand)
chain: MAAGSITTLPALPEDGGSGAFPPGHFKDPKRLYSKNGGFFLRIHPDGRVDGVREKSDPHIKLQLQAEERGVVSIKGVSANRYLAMKEDGRLLASKSVTDESFFFERLESNNYNTYRSRKYTSWYVALKRTGQYKLGSKTGPGQKAILFLPMSAKS
- ACE Mito., 1 ug/ml heparin (ED50 wild type / ED50 analog x 100%) [5]: 119 % of wild type
- ACE Mito., no heparin (ED50 wild type / ED50 analog x 100%) [5]: 7 % of wild type
- FGF-Rc Comp. (ED50 analog / ED50 wild type FGF) [1]: 1
- FGF-Rc Comp. (ED50 analog / ED50 wild type FGF) [2]: 0.5

B2: bFGF-C78/96/101S (ligand)
chain: B1 chain with S34C
- ACE Mito., 1 ug/ml heparin (ED50 wild type / ED50 analog x 100%) [5]: 125 % of wild type
- ACE Mito., no heparin (ED50 wild type / ED50 analog x 100%) [5]: 23 % of wild type
